{"source": "paper PMC6349402", "target": "FGFR1c and βKlotho receptor complex on membrane vesicles of CHO cells overexpressing both (human) (UniProt Q86Z14)", "sequence (Q86Z14 whole entry, chain 1 of 2)": "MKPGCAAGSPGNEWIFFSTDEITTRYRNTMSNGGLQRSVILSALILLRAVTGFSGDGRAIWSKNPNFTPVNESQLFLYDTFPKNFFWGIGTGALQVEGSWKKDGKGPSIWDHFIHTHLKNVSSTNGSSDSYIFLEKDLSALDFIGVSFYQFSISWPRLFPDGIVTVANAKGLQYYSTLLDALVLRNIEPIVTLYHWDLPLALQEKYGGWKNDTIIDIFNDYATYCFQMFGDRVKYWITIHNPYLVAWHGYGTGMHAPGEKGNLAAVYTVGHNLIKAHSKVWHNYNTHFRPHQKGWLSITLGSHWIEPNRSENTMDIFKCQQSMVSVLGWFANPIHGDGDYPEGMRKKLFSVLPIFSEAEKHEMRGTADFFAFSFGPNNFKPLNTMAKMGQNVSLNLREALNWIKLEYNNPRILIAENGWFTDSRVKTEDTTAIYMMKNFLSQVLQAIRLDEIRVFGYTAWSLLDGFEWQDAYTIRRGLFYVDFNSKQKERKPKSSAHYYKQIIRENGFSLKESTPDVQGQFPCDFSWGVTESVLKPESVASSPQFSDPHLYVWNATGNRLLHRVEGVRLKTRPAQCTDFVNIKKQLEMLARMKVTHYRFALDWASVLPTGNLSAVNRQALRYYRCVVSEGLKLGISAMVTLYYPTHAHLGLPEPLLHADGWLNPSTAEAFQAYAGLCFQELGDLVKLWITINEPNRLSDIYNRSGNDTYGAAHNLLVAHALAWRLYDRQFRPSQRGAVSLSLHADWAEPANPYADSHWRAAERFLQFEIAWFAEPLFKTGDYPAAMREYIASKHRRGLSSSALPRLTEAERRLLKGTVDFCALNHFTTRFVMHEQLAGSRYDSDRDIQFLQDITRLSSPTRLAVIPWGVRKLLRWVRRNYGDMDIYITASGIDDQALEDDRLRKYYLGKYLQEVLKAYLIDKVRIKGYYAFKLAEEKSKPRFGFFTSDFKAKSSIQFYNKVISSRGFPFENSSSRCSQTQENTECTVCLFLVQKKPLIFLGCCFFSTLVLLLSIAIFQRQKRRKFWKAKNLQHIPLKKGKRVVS", "sequence (P11362 22-822, chain 2 of 2, further chain)": "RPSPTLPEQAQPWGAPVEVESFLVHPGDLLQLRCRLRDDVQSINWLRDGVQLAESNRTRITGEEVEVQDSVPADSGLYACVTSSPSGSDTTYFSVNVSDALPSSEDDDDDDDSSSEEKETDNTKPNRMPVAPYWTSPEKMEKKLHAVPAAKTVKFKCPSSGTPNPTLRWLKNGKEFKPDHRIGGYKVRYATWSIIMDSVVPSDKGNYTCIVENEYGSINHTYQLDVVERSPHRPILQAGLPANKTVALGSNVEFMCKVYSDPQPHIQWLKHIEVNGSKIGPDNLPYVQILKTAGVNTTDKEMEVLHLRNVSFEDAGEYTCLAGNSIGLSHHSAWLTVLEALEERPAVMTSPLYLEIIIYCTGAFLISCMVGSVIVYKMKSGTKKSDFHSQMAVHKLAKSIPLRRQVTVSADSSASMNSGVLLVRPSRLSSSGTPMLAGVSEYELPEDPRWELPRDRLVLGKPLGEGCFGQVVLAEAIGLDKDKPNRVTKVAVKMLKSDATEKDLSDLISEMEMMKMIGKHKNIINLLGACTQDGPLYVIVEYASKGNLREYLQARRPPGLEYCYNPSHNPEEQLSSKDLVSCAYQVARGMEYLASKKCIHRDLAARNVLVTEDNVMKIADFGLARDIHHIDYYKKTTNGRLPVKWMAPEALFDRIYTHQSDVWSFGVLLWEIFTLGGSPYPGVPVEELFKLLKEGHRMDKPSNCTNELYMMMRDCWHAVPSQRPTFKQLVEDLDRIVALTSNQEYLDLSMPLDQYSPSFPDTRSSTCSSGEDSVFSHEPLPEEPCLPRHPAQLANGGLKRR", "test": "cryo-EM and cryo-ET of a gold-nanoparticle-labelled ligand on membrane vesicles; membrane preparations (~5 mg/ml) incubated with AuE38C-FGF21 (0.03 mg/ml) on ice for 30 min, washed with 1X PBS three times, plunge-frozen; AuNPs and AuNP pairs counted in tomograms", "data": [{"substance": "AuNP-FGF21 (E38C-FGF21 conjugated with a 144-gold atom nanoparticle) (ligand)", "values": [{"measurement": "percent of AuNPs in true pairs", "result": 85, "unit": "%"}, {"measurement": "stoichiometry N (copies of FGF21 in the receptor complex)", "result": 2}]}]}
